The target in series [1] is T1, MuA transposase (UniProt P07636 P07636:1-663). The experiment in a line: MuA stays bound after transposition into PhiX174 at room temperature (no Bioanalyser peak); released at 75 C; 10 mM MgCl2, 110 mM NaCl, pH 8. Particulars: tags: ThermoFisher Scientific; chain copies: 4; 3' overhang on bottom strand. The procedure:
Transpososome 1 and transpososome 2 were each mixed to 50 nM with 1.5 ug of PhiX174 RFI DNA (New England Biolabs) in 25 mM Tris.HCl pH8, 110 mM NaCl and 10 mM MgCl₂ in a 30 ul reaction in a 0.2 ml PCR tube. Each reaction was incubated at room temperature for 2 minutes before being split […] to form 3 tubes of 10 uls for each. 1 tube of each transpososome was incubated at 75° C. for 5 minutes, 1 tube of each transpososome was left at room temperature for 5 minutes with nothing added. Hel308Mbu-E284C/S615C-STrEP(C) (1 uM) was added to the final tubes along with 10 mM of ATP (Sigma-Aldrich) and incubated at room temperature for 5 minutes. 1 ul of each reaction was then analysed on the Agilent 2100 Bioanalyser 12,000 bp setting, along with 1 ul of unmodified PhiX.

In series [2] the target is T1, MuA transposase. The series can be described thus: MuA stays bound at room temperature; tagmentation peak only after 75 C; MgCl2 buffer. As to conditions: tags: ThermoFisher Scientific; chain copies: 4; 5' bottom strand flap, 12 nt 5' tail on top strand, 10 nt 3' tail on bottom strand. The procedure: A transposome complex was formed but addition of 1 ul of the MuA adapter, 4.5 ul of nuclease free water, 2 ul of 5× transposome buffer (125 mM Tris pH 8, 550 mM NaCl, 2.5 mM EDTA, 50% glycerol, 0.25% Triton-X100) and 2.5 ul of concentrated MuA transposase (Thermofisher). The mixture was then incubated at 30° C. for 1.5 hours.
A transposition reaction, containing 10 ul of 5× transposase buffer (125 mM Tris pH 8, 550 mM NaCl, 50 mM MgCl2), 5 ul transposome, 2.5 ug PhiX RFI (NEB) and nuclease free water to 50 ul, was then carried out at room temperature for 10 minutes. After 10 mins 6.25 ul of 100 mM rATP was added and the reaction was split into 5×11.25 ul. To sample (i) and (ii) 1.25 ul of nuclease free water was added; to sample (iii) 1.25 ul of Hel308Mbu-E284C-STrEP(C) (SEQ ID NO: 10 with mutation E284C with a streptavidin tag attached at its C terminus) was added; to sample (iv) 1.25 ul of T4 Dda—(E94C/F98W/C109A/C136A/A360C) (SEQ ID NO: 97 with mutations E94C/F98W/C109A/C136A/A360C and then (ΔM1)G1G2 (where (ΔM1)G1G2=deletion of M1 and then addition G1 and G2), was added; to sample (v) 1.25 ul of UvrD Eco-(E117C/M380C)-STrEP (SEQ ID NO: 122 with mutations E177C/M380C with a streptavidin tag attached at the C terminus). Samples (i), (iii), (iv) and (v) were then left at room temperature for 10 mins while sample (ii) was left at 75° C. for 10 mins. […]

Here are results for two molecules from patent US20190194722, “METHOD” (Oxford Nanopore Technologies Ltd., published 2019).

T1 sequence (P07636 whole entry, one chain of several): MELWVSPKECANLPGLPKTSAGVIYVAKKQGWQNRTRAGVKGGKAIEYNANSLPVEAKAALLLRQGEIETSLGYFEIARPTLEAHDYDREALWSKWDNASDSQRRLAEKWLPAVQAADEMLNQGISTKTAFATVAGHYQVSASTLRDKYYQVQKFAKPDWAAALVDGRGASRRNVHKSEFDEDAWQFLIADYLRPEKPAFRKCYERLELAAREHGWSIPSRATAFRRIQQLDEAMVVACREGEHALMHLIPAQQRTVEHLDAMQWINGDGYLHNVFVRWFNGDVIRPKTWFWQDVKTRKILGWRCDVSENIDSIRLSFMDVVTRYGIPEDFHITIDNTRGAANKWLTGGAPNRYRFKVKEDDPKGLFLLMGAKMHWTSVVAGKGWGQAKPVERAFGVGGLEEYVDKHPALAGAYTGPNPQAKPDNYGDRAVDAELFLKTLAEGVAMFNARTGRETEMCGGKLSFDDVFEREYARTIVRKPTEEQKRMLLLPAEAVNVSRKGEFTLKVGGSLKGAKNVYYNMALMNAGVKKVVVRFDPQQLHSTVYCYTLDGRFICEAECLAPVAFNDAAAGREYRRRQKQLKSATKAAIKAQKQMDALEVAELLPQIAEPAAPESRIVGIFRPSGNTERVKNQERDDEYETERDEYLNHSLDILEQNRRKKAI

B1: transposon 2 (dsDNA)
DNA 1: GTTTTCGCATTTATCGTGAAACGCTTTCGCGTTTTTCGTGCGCCGCTTCA
DNA 2: GATCTGAAGCGGCGCACGAAAAACGCGAAAGCGTTTCACGATAAATGCGAAAACTTTTTTTTTT
On to B1, for which the binding result with MuA transposase [1] is reported as “binds”.

B2: MuA adapter (Example 2) (dsDNA)
DNA 1: B1 DNA 2
DNA 2: TGCTGATATTGCGTTTTCGCATTTATCGTGAAACGCTTTCGCGTTTTTCGTGCGCCGCTTCA
Take B2: the binding result with MuA transposase [2] was “binds”.
